In PMC9958131 (Nature Communications, 2023) one finds Modifications data, which are given here for nine molecules.

The test system of this test is PAD2 and PAD4. The experiment in a line: Citrullination site mapping of fibrinogen and vimentin by trypsin digestion and mass spectrometry (protein-level sheet, one search over native, PAD2-cit and PAD4-cit samples). The test is classed as biochemical, human. To be noted: modified residues found per protein; Deamidated [R..] = deamidated (citrullinated) arginine positions; trypsin digest, Sequest HT; not split by sample (native, PAD2-citrullinated, PAD4-citrullinated fibrinogen and vimentin). An excerpt: Description: Raw mass spectrometry data for proteolytic mapping of fibrinogen, vimentin, and hnRNP A2/B1 by cathepsins B, S, and H (sheets 1-6); citrullination site mapping of fibrinogen and vimentin by trypsin digestion (sheets 7-8); and the natural antigen processing assay with native, PAD2-citrullinated (PAD2-cit), and PAD4-citrullinated (PAD4-cit) fibrinogen (sheets 9-11).

B1: Q8N1N4 (protein)
chain: MSLSPCRAQRGFSARSACSARSRGRSRGGFSSRGGFSSRSLNSFGGCLEGSRGSTWGSGGRLGVRFGEWSGGPGLSLCPPGGIQEVTINQNLLTPLKIEIDPQFQVVRTQETQEIRTLNNQFASFIDKVRFLEQQNKVLETKWHLLQQQGLSGSQQGLEPVFEACLDQLRKQLEQLQGERGALDAELKACRDQEEEYKSKYEEEAHRRATLENDFVVLKKDVDGVFLSKMELEGKLEALREYLYFLKHLNEEELGQLQTQASDTSVVLSMDNNRYLDFSSIITEVRARYEEIARSSKAEAEALYQTKYQELQVSAQLHGDRMQETKVQISQLHQEIQRLQSQTENLKKQNASLQAAITDAEQRGELALKDAQAKVDELEAALRMAKQNLARLLCEYQELTSTKLSLDVEIATYRRLLEGEECRMSGECTSQVTISSVGGSAVMSGGVGGGLGSTCGLGSGKGSPGSCCTSIVTGGSNIILGSGKDPVLDSCSVSGSSAGS
Turning to B1, the Modifications result was “Deamidated [R130]”.

B2: P12035 (protein, UniProt P12035 1-628, looked up)
chain: MSRQASKTSGGGSQGFSGRSAVVSGSSRMSCVAHSGGAGGGAYGFRSGAGGFGSRSLYNLGGNKSISISVAAGGSRAGGFGGGRSSCAFAGGYGGGFGSGYGGGFGGGFGGGRGMGGGFGGAGGFGGAGGFGGAGGFGGPGGFGGSGGFGGPGSLGSPGGFGPGGFPGGIQEVTINQSLLQPLNVEIDPQIGQVKAQEREQIKTLNNKFASFIDKVRFLEQQNKVLETKWNLLQQQGTSSISGTNNLEPLFENHINYLRSYLDNILGERGRLDSELKNMEDLVEDFKKKYEDEINKRTAAENEFVTLKKDVDSAYMNKVELQAKVDALIDEIDFLRTLYDAELSQMQSHISDTSVVLSMDNNRSLDLDSIIAEVRAQYEDIAQRSKAEAEALYQTKLGELQTTAGRHGDDLRNTKSEIIELNRMIQRLRAEIEGVKKQNANLQTAIAEAEQHGEMALKDANAKLQELQAALQQAKDDLARLLRDYQELMNVKLALDVEIATYRKLLEGEEYRMSGECPSAVSISVVSSSTTSASAGGYGGGYGGGMGGGLGGGFSAGGGSGSGFGRGGGGGIGGGFGGGSSGFSGGSGFGSISGARYGVSGGGFSSASNRGGSIKFSQSSQSSQRYSR
modifications: full-length
On to B2, for which the Modifications entry is “Deamidated [R217]”.

B3: Fibrinogen b: β chain of human fibrinogen, RA autoantigen; native or citrullinated by PAD2 or PAD4 (protein)
chain: MKRMVSWSFHKLKTMKHLLLLLLCVFLVKSQGVNDNEEGFFSARGHRPLDKKREEAPSLRPAPPPISGGGYRARPAKAAATQKKVERKAPDAGGCLHADPDLGVLCPTGCQLQEALLQQERPIRNSVDELNNNVEAVSQTSSSSFQYMYLLKDLWQKRQKQVKDNENVVNEYSSELEKHQLYIDETVNSNIPTNLRVLRSILENLRSKIQKLESDVSAQMEYCRTPCTVSCNIPVVSGKECEEIIRKGGETSEMYLIQPDSSVKPYRVYCDMNTENGGWTVIQNRQDGSVDFGRKWDPYKQGFGNVATNTDGKNYCGLPGEYWLGNDKISQLTRMGPTELLIEMEDWKGDKVKAHYGGFTVQNEANKYQISVNKYRGTAGNALMDGASQLMGENRTMTIHNGMFFSTYDRDNDGWLTSDPRKQCSKEDGGGWWYNRCHAANPNGRYYWGGQYTWDMAKHGTDDGVVWMNWKGSWYSMRKMSMKIRPFFPQQ
Turning to B3, the Modifications entry was “Deamidated [R53; R60; R72; R74; R158; R196; R199; R224; R246; R267; R285; R334; R376; R395; R410; R421; R436; R445; R478]”.

B4: B1AHL2 (protein)
chain: MERAAPSRRVPLPLLLLGGLALLAAGVDADVLLEACCADGHRMATHQKDCSLPYATESKECRAVGLASLCQDLNGAWAVWKVGRASQAEGTASARAQRRGMVQEQCCHSQLEELHCATGISLANEQDRCATPHGDNASLEATFVKRCCHCCLLGRAAQAQGQSCEYSLMVGYQCGQVFQACCVKSQETGDLDVGGLQETDKIIEVEEEQEDPYLNDRCRGGGPCKQQCRDTGDEVVCSCFVGYQLLSDGVSCEDVNECITGSHSCRLGESCINTVGSFRCQRDSSCGTGYELTEDNSCKDIDECESGIHNCLPDFICQNTLGSFRCRPKLQCKSGFIQDALGNCIDINECLSISAPCPIGHTCINTEGSYTCQKNVPNCGRGYHLNEEGTRCVDVDECAPPAEPCGKGHRCVNSPGSFRCECKTGYYFDGISRMCVDVNECQRYPGRLCGHKCENTLGSYLCSCSVGFRLSVDGRSCEDINECSSSPCSQECANVYGSYQ
Regarding B4, the Modifications result was “Deamidated [R217; R219; R325; R327; R381; R391; R505; R623; R643; R671]”.

B5: P01871 (protein)
chain: GSASAPTLFPLVSCENSPSDTSSVAVGCLAQDFLPDSITFSWKYKNNSDISSTRGFPSVLRGGKYAATSQVLLPSKDVMQGTDEHVVCKVQHPNGNKEKNVPLPVIAELPPKVSVFVPPRDGFFGNPRKSKLICQATGFSPRQIQVSWLREGKQVGSGVTTDQVQAEAKESGPTTYKVTSTLTIKESDWLGQSMFTCRVDHRGLTFQQNASSMCVPDQDTAIRVFAIPPSFASIFLTKSTKLTCLVTDLTTYDSVTISWTRQNGEAVKTHTNISESHPNATFSAVGEASICEDDWNSGERFTCTVTHTDLPSPLKQTISRPKGVALHRPDVYLLPPAREQLNLRESATITCLVTGFSPADVFVQWMQRGQPLSPEKYVTSAPMPEPQAPGRYFAHSILTVSEEEWNTGETYTCVVAHEALPNRVTERTVDKSTGKPTLYNVSLVMSDTAGTCY
Regarding B5, the Modifications result was “Deamidated [R423]”.

B6: Q5T749 (protein)
chain: MCDQQQIQCRLPLQQCCVKGPSFCSSQSPFAQSQVVVQAPCEMQIVDCPASCPVQVCQVSDQAPCQSQTTQVKCQSKTKQVKGQAQCQSKTTQVKGQAASQSQTSSVQSQAPCQSEVSYVQCEASQPVQTCFVECAPVCYTETCYVECPVQNYVPCPAPQPVQMYRGRPAVCQPQGRFSTQCQYQGSYSSCGPQFQSRATCNNYTPQFQLRPSYSSCFPQYRSRTSFSPCVPQCQTQGSYGSFTEQHRSRSTSRCLPPPRRLQLFPRSCSPPRRFEPCSSSYLPLRPSEGFPNYCTPPRRSEPIYNSRCPRRPISSCSQRRGPKCRIEISSPCCPRQVPPQRCPVEIPPIRRRSQSCGPQPSWGASCPELRPHVEPRPLPSFCPPRRLDQCPESPLQRCPPPAPRPRLRPEPCISLEPRPRPLPRQLSEPCLYPEPLPALRPTPRPVPLPRPGQCEIPEPRPCLQPCEHPEPCPRPEPIPLPAPCPSPEPCRETWRSPSP
For B6, the Modifications result was “Deamidated [R211; R248; R371; R554]”.

B7: Q02413 (protein, UniProt Q02413 1-1049, looked up)
chain: MDWSFFRVVAMLFIFLVVVEVNSEFRIQVRDYNTKNGTIKWHSIRRQKREWIKFAAACREGEDNSKRNPIAKIHSDCAANQQVTYRISGVGIDQPPYGIFVINQKTGEINITSIVDREVTPFFIIYCRALNSMGQDLERPLELRVRVLDINDNPPVFSMATFAGQIEENSNANTLVMILNATDADEPNNLNSKIAFKIIRQEPSDSPMFIINRNTGEIRTMNNFLDREQYGQYALAVRGSDRDGGADGMSAECECNIKILDVNDNIPYMEQSSYTIEIQENTLNSNLLEIRVIDLDEEFSANWMAVIFFISGNEGNWFEIEMNERTNVGILKVVKPLDYEAMQSLQLSIGVRNKAEFHHSIMSQYKLKASAISVTVLNVIEGPVFRPGSKTYVVTGNMGSNDKVGDFVATDLDTGRPSTTVRYVMGNNPADLLAVDSRTGKLTLKNKVTKEQYNMLGGKYQGTILSIDDNLQRTCTGTININIQSFGNDDRTNTEPNTKITTNTGRQESTSSTNYDTSTTSTDSSQVYSSEPGNGAKDLLSDNVHFGPAGIGLLIMGFLVLGLVPFLMICCDCGGAPRSAAGFEPVPECSDGAIHSWAVEGPQPEPRDITTVIPQIPPDNANIIECIDNSGVYTNEYGGREMQDLGGGERMTGFELTEGVKTSGMPEICQEYSGTLRRNSMRECREGGLNMNFMESYFCQKAYAYADEDEGRPSNDCLLIYDIEGVGSPAGSVGCCSFIGEDLDDSFLDTLGPKFKKLADISLGKESYPDLDPSWPPQSTEPVCLPQETEPVVSGHPPISPHFGTTTVISESTYPSGPGVLHPKPILDPLGYGNVTVTESYTTSDTLKPSVHVHDNRPASNVVVTERVVGPISGADLHGMLEMPDLRDGSNVIVTERVIAPSSSLPTSLTIHHPRESSNVVVTERVIQPTSGMIGSLSMHPELANAHNVIVTERVVSGAGVTGISGTTGISGGIGSSGLVGTSMGAGSGALSGAGISGGGIGLSSLGGTASIGHMRSSSDHHFNQTIGSASPSTARSRITKYSTVQYSK
modifications: full-length
Regarding B7, the Modifications entry is “Deamidated [R416; R607]”.

B8: Q12805 (protein, UniProt Q12805 1-493, looked up)
chain: MLKALFLTMLTLALVKSQDTEETITYTQCTDGYEWDPVRQQCKDIDECDIVPDACKGGMKCVNHYGGYLCLPKTAQIIVNNEQPQQETQPAEGTSGATTGVVAASSMATSGVLPGGGFVASAAAVAGPEMQTGRNNFVIRRNPADPQRIPSNPSHRIQCAAGYEQSEHNVCQDIDECTAGTHNCRADQVCINLRGSFACQCPPGYQKRGEQCVDIDECTIPPYCHQRCVNTPGSFYCQCSPGFQLAANNYTCVDINECDASNQCAQQCYNILGSFICQCNQGYELSSDRLNCEDIDECRTSSYLCQYQCVNEPGKFSCMCPQGYQVVRSRTCQDINECETTNECREDEMCWNYHGGFRCYPRNPCQDPYILTPENRCVCPVSNAMCRELPQSIVYKYMSIRSDRSVPSDIFQIQATTIYANTINTFRIKSGNENGEFYLRQTSPVSAMLVLVKSLSGPREHIVDLEMLTVSSIGTFRTSSVLRLTIIVGPFSF
modifications: full-length
Turning to B8, the Modifications entry is “Deamidated [R185; R208; R227; R328; R345]”.

B9: Q7Z3Y7 (protein)
chain: MSLQFSNGSRHVCLRSGAGSVRPLNGGAGFAGSSACGGSVAGSEFSCALGGGLGSVPGGSHAGGALGNAACIGFAGSEGGLLSGNEKVTMQNLNDRLASYLDNVRALEEANAELERKIKGWYEKYGPGSCRGLDHDYSRYHLTIEDLKNKIISSTTTNANVILQIDNARLAADDFRLKYENELTLHQNVEADINGLRRVLDELTLCRTDQELQYESLSEEMTYLKKNHEEEMKALQCAAGGNVNVEMNAAPGVDLAVLLNNMRAEYEALAEQNRKDAEAWFNEKSASLQQQISHDSGAATFARSQLTEMRRTLQTLEIQLQSLMATKHSLECSLTETESNYCTQLAQIQAQIGALEEQLHQVRTETEGQKLEYEHLLDVKVHLEKEIETYCRLIDGDGNSCSKSKGFGSGSPGNSSKDLSKTTLVKTVVEELDQRGKVLSSRIHSIEEKTSKMTNGKTEQRVPF
On to B9, for which the Modifications entry is “Deamidated [R96]”.
